Reference: paper PMC9077843

B1: B3GNT5 (β1,3-N-acetylglucosaminyltransferase V): 4NQ (protein)
parent chain: MRMLVSGRRVKKWQLIIQLFATCFLASLMFFWEPIDNHIVSHMKSYSYRYLINSYDFVNDTLSLKHTSAGPRYQYLINHKEKCQAQDVLLLLFVKTAPENYDRRSGIRRTWGNENYVRSQLNANIKTLFALGTPNPLEGEELQRKLAWEDQRYNDIIQQDFVDSFYNLTLKLLMQFSWANTYCPHAKFLMTADDDIFIHMPNLIEYLQSLEQIGVQDFWIGRVHRGAPPIRDKSSKYYVSYEMYQWPAYPDYTAGAAYVISGDVAAKVYEASQTLNSSLYIDDVFMGLCANKIGIVPQDHVFFSGEGKTPYHPCIYEKMMTSHGHLEDLQDLWKNATDPKVKTISKGFFGQIYCRLMKIILLCKISYVDTYPCRAAFI
B2: B3GNT5 (β1,3-N-acetylglucosaminyltransferase V): tunicamycin (TM, 2.5 μg/mL, 24 h) (protein)
parent chain: B1 parent chain

Assays:
[1] = Western blot, HEK293T; conditions: glycan lost; control: B3GNT5-WT-Flag
[2] = Western blot, MDA-MB231 and BT549, B3GNT5-WT-mcherry; conditions: glycan lost; control: untreated

| Protein | expression_or_secretion [1] | expression_or_secretion [2] |
| --- | --- | --- |
| B1 | decreases |  |
| B2 |  | decreases |
